Assay: soluble on expression in E. coli; label from the status in PepcDB or PDB records

Sequence	soluble on expression in E. coli
MEIAFLLNGETRRVRIEDPTQSLLELLRAEGLTGTKEGCNEGDCGACTVMIRDAAGSRAVNACLMMLPQIAGKALRTIEGIAAPDGRLHPVQQAMIDHHGSQCGFCTPGFIVSMAAAHDRDRKDYDDLLAGNLCRCTGYAPILRAAEAAAGEPPADWLQADAAFTLAQLSSGVRGQTAPAFLPETSDALADWYLAHPEATLIAGGTDVSLWVTKALRDLPEVAFLSHCKDLAQIRETPDGYGIGAGVTIAALRAFAEGPHPALAGLLRRFASEQVRQVATIGGNIANGSPIGDGPPALIAMGASLTLRRGQERRRMPLEDFFLEYRKQDRRPGEFVESVTLPKSAPGLRCYKLSKRFDQDISAVCGCLNLTLKGSKIETARIAFGGMAGVPKRAAAFEAALIGQDFREDTIAAALPLLAQDFTPLSDMRASAAYRMNAAQAMALRYVRELSGEAVAVLEVMP	soluble
MEIDELPSGTQDQKPDIDMNEIVGTHDILMLCFDTLRYDVSVAEEASGGTPVLNSCGNGWEKRHAPGNFTYPSHFAIFAGFLPSPAEPHMLRNRKWLFFPFQAGTGRIPPEGSYAFKEATFVQSLAQVGYETICIGGVNFFSKRNDIGRVFPGYFNKSYWLPTFGCTDKNSAANQVDFAVDKLEKYPADRKVFMYINFSAIHYPNCHYVEGKKKDDKESHAAALRYVDSQLPRLFEAFRRRSDTLVIALSDHGTCYGEDGYEYHCISHEKVYTVPYKHFILRKLEHHHHHH	soluble
MEIGVPKEIKNQEFRVGLSPSSVRTLVEAGHTVFIETQAGIGAGFADQDYVQAGAQVVPSAKDAWSREMVVKVKEPLPAEYDLMQKDQLLFTYLHLAAARELTEQLMRVGLTAIAYETVELPNRSLPLLTPMSIIAGRLSVQFGARFLERQQGGRGVLLGGVPGVKPGKVVILGGGVVGTEAAKMAVGLGAQVQIFDINVERLSYLETLFGSRVELLYSNSAEIETAVAEADLLIGAVLVPGRRAPILVPASLVEQMRTGSVIVDVAVDQGGCVETLHPTSHTQPTYEVFGVVHYGVPNMPGAVPWTATQALNNSTLPYVVKLANQGLKALETDDALAKGLNVQAHRLVHPAVQQVFPDLA	soluble
MEIKERIQLLLSEMNRGVYEKEAEIGLSLLAALAGESILLLGPPGVAKSMVARRLKRAFVDARAFEYLMSRFSTPDEIFGPVSISRLKESDKYERAVDGYLPTADVVFLDEIWKAGPAIQNTLLTVINEKLFRNGDTELKLPLKLLVAASNELPTQGEGLEALWDRFLIRIISTCVKQEEAFYQMLLDDDDEEEQEACRWQISDEEYAGWQKEIRQIKVSAEVLSCITEIRKNLEKVEIQGSEVHRNVYVSDRRWKNIVKLLKASAFIHGRKEVCLTDLLPVYHCLWNEPEECADIRQIVVRALFVPYVKEIAAINLSLKSDLKVSRVREALEKARQKGDRRDDDLMIIDHFYYQIENHGTGNTYIFIVDYKNLKEYSPKDVPATGVMYADPLNPKRTIIRTFSDATKMKEQGAERVTLYRDEKNLYINGVRFPMRRLKRGEQQQLWLGNMTLTDRDYETELETAHGRIEKLVKDLSENIFISEEDKKGVAQYVATLRKEIAWARVDVRKLRYGDES	not soluble
MEIKRILVSRTDKIGDLVLSIPSFFMLKKMYPNAELVVIVRKYNVDIVKNLPYIDRIVIIDEYSKAELLEKIAYFKADVFIALYNDSYIASLARASKAKIKIGPISKLSSFFTYNKGVLQKRSLSLKNEGQYNLDLVTKLDRKRFAILYELNTKLEHHHHHH	soluble
MEKIFKVTSDSGIHARPATLLVNTASKFGSDINLEYNGKNVNLKSIMGVMSLGIQQNAEIKITANGDDAAQALAAIEETMKNEGLGE	not soluble
MEKIWPTGAQEETLMTQETNQNEVVVQNNAVAKTNTGSNYITAILEETKQGFVEANNGLDMDFVRMGEWLTVTKKGNFVEKDDENVSYGDNIDVVIGYGEQRWSVWGLEESPEAGQLIVAERTKEEAEIVLNQWLAENPQAQERYELDAIQLRYMASVVPVSTLRPDDFPRIYLMSFSPTDTIIFGRFAMNVYTGKYKALEIPSKLGVNRIVTRLVTAERKSRTNASNQWIGIDFQPVGVFKPEDYGINVEETEQAEKASE	not soluble
MEKKAFFQQLDERTDIRYTDSGLKIFRLKFPRAHLRLCNVKIDFGSRDVCIRAESGDTLLPYGTAHFLEHLLFWHNGRNLYSDFFAHGALLNAFTTYTDTNFMFTSLPDRLRQTIPILLDALWNHSFDKKIVAQEKAVITSEIQTAHLNHQLSYHYQLISMLSPSSPAAVFPAGRIEDIEALDISDLQKAYKAAYQAHRMTLFLIGGSENTETLLPPHLQLEKRPDYHAERKIIPACPPVLSQKMMLGDEERMEDTWTGLQIGALPGQNDLLSIKLYWDIAARILFQLDSPFFQEIQQTYRLEIDRLSAETYIYEDGGFLILHSQGTHSSAYIDVASYYVTQKKEQVAAWLQYGKDSLTDAIIYDSDYVRKCFEWAAECDRCDCSFLDMYHIIQDMDAQVFLSLIDAMASSNKAIIHVSQKEAIRQ	not soluble
MEKKYRKEPVEIPPEIAETAAGGKVPETDVTEQYPQMEEMNGTEAAGEMPQIGPMYPIPQVPAQPTEPAQQMGQMPCMQPIPQMVPVVCCPFLLQMHCPMMPMDYSSMSHPTYQTAPQAMPQTMQAVPQPATPAQYAPGPCGSPYYPQHSGSPCGYGSDMYDQNYNSSMYNPSMYNPMRPGYY	not soluble
MEKLEALKRLFPGKVDLSESERLRHGKDEGYPEARPVLAVVYPEGVEDVQKALRWAREWGVAVIPFGAGTSLEGHLYPVREAISLDLSRMNRVLEVRPQDFSCVVEPGLTRKALNEALKGTGLFFPVDPGADASLGGMAATNASGTTTVRYGGMRQNVLALQVVLASGEVLELGRGVRKTSSGYDLKDLFIGSEGTLGVITRLTLRLHPLPEHVHTLRVFFPGVEEAAEASYRIMASGLPVARLELLDELAMRALNRYLKAGFPERPALFLEFHASTKEALEAERASALELVREAGALEVEAATTEEERRRQWEARHQAYWALVHLFPGHRFMITDTAVPLSRLPEMVRFAQGLLREMGLTGNILGHVGDGNFHTLIPVLPEDYPKAEAYAERLVEKALELGGTCTAEHGVGLRKRKFLPKEHGPALEWMRRLKALFDPEGLLNPGKVV	soluble
MEKNKSSSPDFSVRDFFKRFPDDEACLEHIFNVRFGARHVCRACGVESTFHRMSDRRAFACAACGDHVYPTAGTIFQDTRTPLQVWFYAIYLFVTTRHGVSGKELQRQLGVTYKTAWRIGHKIREQMDKHDLKAMLQGHVEIDEAYIGGKRPGKRGRGAAGKTIVMGFKQRGGRLVTEIVPDVKLKTLRAETLKTVDAGATVSTDELYSYSLLKGEGYTHVAVKHGAKQWTIYDAETDTMHHTNHVESFWRHFKHSIRGTHVSISQRHMRKYLDEFTFRANHRGEVNLMFDRLVAAFLEHHHHHH	soluble
MEKNMRPYTVLWADDEIDLLKPHILFLEQKGYQVTPVLSGNDAIEAVQNNDFDIVFLDENMPGIGGLDALQKIKELKPYTPVVMITKSEEEHIMTQAIGGKIADYLIKPVNPNQLLLSLKKNLQQHSIISETTNTNYRQEFVQLGTQMSGKLSFEEWKELYRRIVFWEIELEQADRQMGELLEMQKQEANRLFARFVTQNYREWIAKPDTRPTMSPDLFKQKVFPLLDNGEKVFFILIDNFRQDQWESVKSMLSEFYTFEEDMYLSILPTATQYARNAIFSGLMPLQIEKMFPDLWVDEESEEGKNLNEEPMIRTLIERYRKHYSFSYNKVYETKFGERLLGQIRSLSQNQLNVIVLNFVDMMSHARTDSKMIRELASNEAAYRSLTKSWFKHSTTYNLFRSIAEMGYKVVLTTDHGTIQVKNPVKVIGDRSTNTNLRYKIGKNLDYNPKEVFEIKDPASVGLPHNNLSDKFIFTKEDDFFAYPNNYNYYVQYYRNTFQHGGISLEEMLVPVITMQPK	not soluble
MEKPGHETDIAGSRRTHLKKSFKSTLRHLLTACSKQVVVNLHQTIEEEFDEQCHETQVGPILDTVEELVEEQSLDPLFSDKTDVMAIAYDLTTSKKNEIQKLTVLLQRAEEQNRQKEARISMLKKQTQDLSGTADRIEKLNAGVSGYFEGKDKLPPI	soluble
MEKQPNKLIREKSPYLLQHAWNPVDWHPWGEEAFSRARETGRPIFLSSGYSTCHWCHVMEHESFENAETAALLNRHFVPVKLDREEHPDVDHLYMMFVQATTGRGGWPMSVWMTPDLKPFFGGSYFPATERWGMPSFRSVLEHLANLWEHDRPRLLASAGSIMDQLSGLTRP	not soluble

From the DeepSol protein solubility set
